Experimental findings from patent publication US20160305952A1 (ROCHE SEQUENCING SOLUTIONS, published 2016) are described below.

Sequences and labels used below:
B1: NH2-WTHPQFEQK-COOH (peptide)
peptide: H-WTHPQFEQK-OH
notes: free peptide, C-terminal carboxylic acid
B2: NH2-ADYLAEYHGG-COOH (peptide)
peptide: H-ADYLAEYHGG-OH
notes: as for B1
B3: NH2-SAWSHPQFEK-COOH (peptide)
peptide: H-SAWSHPQFEK-OH
notes: free peptide, C-terminal carboxylic acid; bought from IBA; also called Strep-tag II peptide; Strep-Tag II
B4: NH2-NSFDDWLAKGG-COOH (peptide)
peptide: H-NSFDDWLAKGG-OH
notes: as for B1

Where no end group is shown, it is not given here.

For the first assay, the target named is T1, streptavidin (UniProt P22629 37-163, limits assumed).
T1 construct: amine-coupled to a CM5 chip for SPR; also called SA
T1 sequence (P22629 37-163 limits assumed): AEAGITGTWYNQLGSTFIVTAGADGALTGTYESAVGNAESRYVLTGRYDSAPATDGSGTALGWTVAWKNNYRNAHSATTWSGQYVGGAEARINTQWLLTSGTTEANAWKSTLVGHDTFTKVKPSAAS
The experiment in a line: SPR, Biacore X100, streptavidin on CM5 chip, peptide in solution. The text has this: A selection of streptavidin peptide binders listed in Table 15 were synthesized using standard column-based synthesis techniques by UW Biotechnology center (Madison, Wis.) or by Peptide2.0 (Chantilly, Va.) at 98-99% purity. Strep-tag II peptide NH2-[…]-COOH was purchased from IBA GmbH (Goettingen, Germany). Synthesized peptides were then characterized by Surface Plasmon Resonance (SPR) to identify binding characteristics including the association rate constant (kₛ), dissociation rate constant (kd), and equilibrium dissociation […] (kd/kₐ=KD). In one aspect, SPR experiments were performed by using Biacore X100 instrument (GE Healthcare). Preliminarily, 60 μl of 100 μg/ml streptavidin in 10 mM Na-acetate, pH5.0 was immobilized to flow cell 2 (Fc2) of a sensor chip CM5 (GE Healthcare) using Amine Coupling Kit (GE Healthcare) at 20° C. for 6 min. Peptide stock solutions were prepared at 5 or 10 mM concentration in water and diluted in HBS-EP+ (GE Healthcare) buffer before SPR experiments. Peptide binding was performed in a multiple kinetics mode using HBS-EP+ as a running buffer and 0.2 M NaCl, 10 mM NaOH or 10 mM HCl-glycine, […] as regeneration buffer. Binding kinetics parameters were calculated with Biacore X100 software.
For orientation: In SPR one partner is held on a chip, and binding of the other changes the refractive index at the surface.
A word on the Kd: it is the constant that tells how readily two partners part at equilibrium. Consider B1, for which the Kd was found to be 15.5 µM. B2 came in with a dissociation constant (Kd) of 96 µM. Same read-out and setting: next, B3: 49.8 µM. For orientation: koff means the rate constant with which the complex falls apart. Read a high koff as fast dissociation. As usually defined, the kon is the second-order rate constant of association. A higher kon goes with faster complex formation. Take H-AFDYLAQYHGG-NH2 (free peptide) [NH2-AFDYLAQYHGG-amide]: the dissociation constant Kd came out at 1.52 µM, the koff is 0.0354 s⁻¹ and the association rate constant (kon) is 23300 M⁻¹ s⁻¹. In turn, B4 showed a Kd of 11.3 µM. Molecule H-AFPDYLAEYHGG-NH2 (free peptide) [NH2-AFPDYLAEYHGG-amide] showed a Kd of 0.043 µM, a koff of 0.00128 s⁻¹ and an on-rate constant (kon) of 30100 M⁻¹ s⁻¹. With H-WTHPQFEQPKA-NH2 (free peptide) [NH2-WTHPQFEQPKA-amide], the Kd was 7.9 µM.

For a further assay, the target named is T2, Tumor Necrosis Factor Alpha (human, UniProt P01375 77-233).
T2 construct: also called TNFα; TNF-α
T2 sequence (P01375 77-233 limits assumed): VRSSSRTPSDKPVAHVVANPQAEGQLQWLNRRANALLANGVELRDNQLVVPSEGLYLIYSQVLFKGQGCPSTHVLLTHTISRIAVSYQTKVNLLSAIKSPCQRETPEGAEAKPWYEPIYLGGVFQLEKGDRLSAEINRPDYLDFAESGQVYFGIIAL
In words: peptide array, extension library, 3Z linker.
Regarding DGALYLFGN (also: array-bound via 3Z linker), the binding result was “binds”.

As for GGTAVFVNT (also: array-bound via 3Z linker), the binding result is “binds”. In the case of TSVTVYVNN (also: array-bound via 3Z linker), the binding result is recorded as “binds”. Same read-out and setting: next, QAAIAIFGG (also: array-bound via 3Z linker): “binds”.

In another assay the target is T3, Taq polymerase (UniProt P19821 1-832). The experiment in a line: peptide array, 5-mer library, 5Z linker.
T3 sequence (P19821 whole entry): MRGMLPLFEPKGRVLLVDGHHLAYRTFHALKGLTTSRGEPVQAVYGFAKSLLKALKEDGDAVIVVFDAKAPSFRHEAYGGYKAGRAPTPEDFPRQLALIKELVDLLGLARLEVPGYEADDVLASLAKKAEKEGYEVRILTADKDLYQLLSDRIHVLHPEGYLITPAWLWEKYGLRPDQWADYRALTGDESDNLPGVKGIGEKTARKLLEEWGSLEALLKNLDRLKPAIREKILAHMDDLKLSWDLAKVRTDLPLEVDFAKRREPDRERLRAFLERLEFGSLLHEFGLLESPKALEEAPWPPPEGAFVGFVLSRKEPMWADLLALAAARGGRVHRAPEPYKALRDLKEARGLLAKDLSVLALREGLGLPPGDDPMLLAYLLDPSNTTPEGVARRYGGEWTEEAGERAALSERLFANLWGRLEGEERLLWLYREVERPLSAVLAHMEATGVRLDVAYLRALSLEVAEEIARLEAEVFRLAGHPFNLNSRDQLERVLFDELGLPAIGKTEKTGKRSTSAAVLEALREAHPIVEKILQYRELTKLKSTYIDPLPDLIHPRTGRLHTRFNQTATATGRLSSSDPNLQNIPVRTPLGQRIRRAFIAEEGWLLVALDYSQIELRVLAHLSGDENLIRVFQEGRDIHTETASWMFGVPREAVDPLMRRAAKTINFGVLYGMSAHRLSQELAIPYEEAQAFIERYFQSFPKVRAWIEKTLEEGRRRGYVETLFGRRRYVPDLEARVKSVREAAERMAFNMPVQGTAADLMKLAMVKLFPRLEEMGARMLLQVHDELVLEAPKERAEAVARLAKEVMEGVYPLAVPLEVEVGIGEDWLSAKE
On to HEFSF (also: array-bound via 5Z linker), for which the binding result is given as “binds”. Same read-out and setting: in the case of HYFEF (also: array-bound via 5Z linker) it was “binds”.

For the molecule WTKVK (also: array-bound via 5Z linker), the binding result is “binds”. Still for that read-out and setting: next, WKAEK (also: array-bound via 5Z linker): “binds”; WDWDW (also: array-bound via 5Z linker): “binds”. For WKEDW (also: array-bound via 5Z linker), the binding result is “binds”.

For a further assay, the target named is T2, Tumor Necrosis Factor Alpha. The experiment in a line: peptide array, 5-mer library, 5Z linker.
As for AIAIF (also: array-bound via 5Z linker), the binding result is on record as “binds”. Regarding TAVFV (also: array-bound via 5Z linker), the binding result is given as “binds”.

Turning to ALYLF (also: array-bound via 5Z linker), the binding result is reported as “binds”.

In a further assay the target is T3, Taq polymerase. In words: peptide array, extension library, 3Z linker.
Consider QQHYFEFEK (also: array-bound via 3Z linker), for which the binding result is given as “binds”. Same read-out and setting: next, KKWDWDWKW (also: array-bound via 3Z linker): “binds”. As for YEHEFSFGT (also: array-bound via 3Z linker), the binding result is “binds”. On the same count and under the same terms, in the case of YKWKEDWKW (also: array-bound via 3Z linker) it was “binds”. The same measure, in the same setting: next, RSWDWDWKK (also: array-bound via 3Z linker): “binds”; YSWTKVKDY (also: array-bound via 3Z linker): “binds”; GQHEFSFGT (also: array-bound via 3Z linker): “binds”.

In the case of FGWKAEKFN (also: array-bound via 3Z linker), the binding result is “binds”. Still for that read-out and setting: in the case of YEWTKVKNY (also: array-bound via 3Z linker) it was “binds”; in that of GEHYFEFAP (also: array-bound via 3Z linker), “binds”. The same measure, in the same setting: in the case of GEHYFEFQQ (also: array-bound via 3Z linker) it was “binds”.

In another assay the target is T4, Prostate Specific Antigen (human, UniProt P07288 25-261).
T4 construct: also called PSA
T4 sequence (P07288 25-261 limits assumed): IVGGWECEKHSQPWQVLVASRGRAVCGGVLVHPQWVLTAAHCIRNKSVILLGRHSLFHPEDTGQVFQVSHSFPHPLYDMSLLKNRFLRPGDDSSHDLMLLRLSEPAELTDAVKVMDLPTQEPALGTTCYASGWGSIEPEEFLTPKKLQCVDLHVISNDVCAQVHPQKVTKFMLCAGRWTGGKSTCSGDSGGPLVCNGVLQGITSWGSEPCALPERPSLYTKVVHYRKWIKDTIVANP
In words: peptide array, 5-mer library, 5Z linker.
WTVYA (also: array-bound via 5Z linker): the binding result was “binds”. Same read-out and setting: in the case of RSILY (also: array-bound via 5Z linker) it was “binds”; in that of WEVHL (also: array-bound via 5Z linker), “binds”; in that of FEVYL (also: array-bound via 5Z linker), “binds”.

The target in a further assay is T4, Prostate Specific Antigen. In words: peptide array, extension library, 3Z linker.
GQFEVYLPG (also: array-bound via 3Z linker): the binding result is given as “binds”. SCRSILYND (also: array-bound via 3Z linker): the binding result is “binds”.

With SCRSILYGQ (also: array-bound via 3Z linker), the binding result is given as “binds”.

On to SCRSILYGP (also: array-bound via 3Z linker), for which the binding result is recorded as “binds”. On the same count and under the same terms, next, TDFEVYLPK (also: array-bound via 3Z linker): “binds”; SEWTVYAGN (also: array-bound via 3Z linker): “binds”; GDWTVYAGN (also: array-bound via 3Z linker): “binds”.

As to TGWEVHLGK (also: array-bound via 3Z linker), the binding result is “binds”. On the same count and under the same terms, in the case of NGFEVYLPG (also: array-bound via 3Z linker) it was “binds”. Same read-out and setting: next, GQWEVHLGK (also: array-bound via 3Z linker): “binds”.
